Source: patent US20220306719A1 (JULIUS MAXIMILIANS UNIVERSIT T W RZBURG, published 2022)
Several values for one entry are separate records, joined by “and”; a condition that tells them apart may be missing. Equal values may be shown once.

B1: anti-MiH antibody #1 (antibody, V domains shown)
VH: QVQLLESGPGLVAPSQTLSITCTVSGFSFTNYDLHWVRQPPGKGLEWLGVIWAVGSTNYNSALMSRLSISKDNSKSQVFLKMNSLQTDDTAIYYCAREEDYRYGMDYWGQGTSVTVSS
VL: ELVMTQSPLSLPVSLGDQASISCRSSQSLVHSNGNTYLHWYLQKPGQSPKLLIYKVSNRFSGVPDRFSGSGSGTDFTLKISRVEAEDLGVYFCSQSTHVPYTFGGGTKLEIK
B2: anti-MiH antibody #1-ADC (anti-MiH antibody #1 conjugated to an anthracycline-based cytotoxic payload) (antibody, V domains shown)
VH: QVQLLESGPGLVAPSQTLSITCTVSGFSFTNYDLHWVRQPPGKGLEWLGVIWAVGSTNYNSALMSRLSISKDNSKSQVFLKMNSLQTDDTAIYYCAREEDYRYGMDYWGQGTSVTVSS
VL: ELVMTQSPLSLPVSLGDQASISCRSSQSLVHSNGNTYLHWYLQKPGQSPKLLIYKVSNRFSGVPDRFSGSGSGTDFTLKISRVEAEDLGVYFCSQSTHVPYTFGGGTKLEIK
modifications: conjugated to an anthracycline-based cytotoxic payload (chain and site not stated)

What was measured:
Experiment in all cases: cell-based or functional assay
[1] = target: CD19_IgG3_MiH5 CAR (FMC63 scFv, IgG3_MiH5 spacer, CD28tm, 4-1BB/CD3zeta) (human)
[2] = target: CD19_IgG3_MiH4 CAR (FMC63 scFv, IgG3_MiH4 spacer, CD28tm, 4-1BB/CD3zeta) (human)
[3] = target: CD19_IgG3_MiH3 CAR (FMC63 scFv, IgG3_MiH3 spacer, CD28tm, 4-1BB/CD3zeta) (human)
[4] = target: CD19_IgG3_MiH1 CAR (FMC63 scFv, IgG3_MiH1 spacer, CD28tm, 4-1BB/CD3zeta)
[5] = target: R11_IgG3_MiH5/MiH3 CAR (advanced IgG3 format, ROR1-specific R11 scFv)
[6] = target: R11_IgG3_MiH3 CAR (ROR1-specific R11 scFv, IgG3_MiH3 spacer)
[7] = target: CD19_IgG3_MiH5/MiH1 CAR (advanced IgG3 format: FMC63 scFv with MiH5 linker between the variable domains, MiH1 …)
[8] = target: CD20_IgG3_MiH5/MiH3 CAR (advanced IgG3 format, Leu16 scFv)
Sequence of CD20_IgG3_MiH5/MiH3 CAR (advanced IgG3 format, Leu16 scFv) (chain, as listed by the source): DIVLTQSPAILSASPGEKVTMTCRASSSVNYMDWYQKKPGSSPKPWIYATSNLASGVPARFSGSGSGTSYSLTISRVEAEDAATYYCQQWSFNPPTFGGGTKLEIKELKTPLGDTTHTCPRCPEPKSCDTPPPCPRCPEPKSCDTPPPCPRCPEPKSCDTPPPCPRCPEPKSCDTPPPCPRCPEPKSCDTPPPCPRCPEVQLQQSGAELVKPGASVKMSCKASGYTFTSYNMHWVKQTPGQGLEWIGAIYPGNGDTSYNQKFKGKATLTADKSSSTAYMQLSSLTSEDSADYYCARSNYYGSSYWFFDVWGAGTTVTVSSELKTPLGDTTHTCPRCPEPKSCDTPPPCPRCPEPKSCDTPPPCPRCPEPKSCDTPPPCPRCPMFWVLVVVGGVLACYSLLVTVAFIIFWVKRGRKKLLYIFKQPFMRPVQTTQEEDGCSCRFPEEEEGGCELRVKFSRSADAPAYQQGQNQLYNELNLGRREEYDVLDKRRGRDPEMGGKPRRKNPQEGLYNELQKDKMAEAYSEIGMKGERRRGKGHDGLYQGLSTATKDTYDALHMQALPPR

Sequence of CD19_IgG3_MiH5 CAR (FMC63 scFv, IgG3_MiH5 spacer, CD28tm, 4-1BB/CD3zeta) (human) (chain, as listed by the source): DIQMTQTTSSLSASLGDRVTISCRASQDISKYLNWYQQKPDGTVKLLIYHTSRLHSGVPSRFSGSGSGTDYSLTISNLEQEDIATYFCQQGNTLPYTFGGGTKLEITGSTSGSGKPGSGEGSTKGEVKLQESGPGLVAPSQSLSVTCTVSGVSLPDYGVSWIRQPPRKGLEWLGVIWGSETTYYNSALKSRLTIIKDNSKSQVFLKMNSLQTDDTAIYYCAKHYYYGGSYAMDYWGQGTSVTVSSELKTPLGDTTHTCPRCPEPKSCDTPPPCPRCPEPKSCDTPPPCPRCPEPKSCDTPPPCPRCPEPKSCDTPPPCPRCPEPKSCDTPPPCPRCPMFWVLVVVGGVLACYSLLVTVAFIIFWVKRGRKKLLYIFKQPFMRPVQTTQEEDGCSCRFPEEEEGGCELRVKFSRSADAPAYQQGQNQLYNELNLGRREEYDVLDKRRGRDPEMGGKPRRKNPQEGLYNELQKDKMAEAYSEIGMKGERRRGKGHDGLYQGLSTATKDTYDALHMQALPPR
Sequence of R11_IgG3_MiH5/MiH3 CAR (advanced IgG3 format, ROR1-specific R11 scFv) (chain, as listed by the source): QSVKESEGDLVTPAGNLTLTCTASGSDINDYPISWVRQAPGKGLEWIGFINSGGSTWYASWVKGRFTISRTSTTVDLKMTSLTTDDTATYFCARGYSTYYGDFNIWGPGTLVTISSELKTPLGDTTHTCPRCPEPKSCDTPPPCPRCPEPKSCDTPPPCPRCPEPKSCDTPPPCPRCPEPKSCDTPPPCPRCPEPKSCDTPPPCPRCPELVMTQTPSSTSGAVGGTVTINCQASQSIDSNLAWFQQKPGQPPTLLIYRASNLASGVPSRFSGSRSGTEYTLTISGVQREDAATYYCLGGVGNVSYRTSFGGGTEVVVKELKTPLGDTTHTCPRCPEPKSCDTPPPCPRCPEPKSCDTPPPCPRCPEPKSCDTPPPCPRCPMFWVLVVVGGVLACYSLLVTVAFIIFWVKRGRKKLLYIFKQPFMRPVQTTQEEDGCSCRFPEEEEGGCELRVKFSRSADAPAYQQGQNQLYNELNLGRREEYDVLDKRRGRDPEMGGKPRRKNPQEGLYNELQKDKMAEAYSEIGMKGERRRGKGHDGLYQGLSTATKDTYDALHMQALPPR
Sequence of CD19_IgG3_MiH3 CAR (FMC63 scFv, IgG3_MiH3 spacer, CD28tm, 4-1BB/CD3zeta) (human) (chain, as listed by the source): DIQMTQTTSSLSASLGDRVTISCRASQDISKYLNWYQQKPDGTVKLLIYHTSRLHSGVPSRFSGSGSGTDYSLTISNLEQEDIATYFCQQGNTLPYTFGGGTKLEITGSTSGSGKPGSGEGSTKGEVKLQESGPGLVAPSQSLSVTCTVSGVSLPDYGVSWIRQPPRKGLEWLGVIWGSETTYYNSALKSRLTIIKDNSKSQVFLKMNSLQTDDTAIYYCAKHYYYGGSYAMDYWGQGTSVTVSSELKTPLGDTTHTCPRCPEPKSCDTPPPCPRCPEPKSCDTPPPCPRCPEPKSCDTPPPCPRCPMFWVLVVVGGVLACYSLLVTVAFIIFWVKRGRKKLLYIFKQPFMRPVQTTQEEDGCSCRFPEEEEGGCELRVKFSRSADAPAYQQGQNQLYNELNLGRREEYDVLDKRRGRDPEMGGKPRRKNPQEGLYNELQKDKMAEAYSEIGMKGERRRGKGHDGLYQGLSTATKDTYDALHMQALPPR
Sequence of CD19_IgG3_MiH4 CAR (FMC63 scFv, IgG3_MiH4 spacer, CD28tm, 4-1BB/CD3zeta) (human) (chain, as listed by the source): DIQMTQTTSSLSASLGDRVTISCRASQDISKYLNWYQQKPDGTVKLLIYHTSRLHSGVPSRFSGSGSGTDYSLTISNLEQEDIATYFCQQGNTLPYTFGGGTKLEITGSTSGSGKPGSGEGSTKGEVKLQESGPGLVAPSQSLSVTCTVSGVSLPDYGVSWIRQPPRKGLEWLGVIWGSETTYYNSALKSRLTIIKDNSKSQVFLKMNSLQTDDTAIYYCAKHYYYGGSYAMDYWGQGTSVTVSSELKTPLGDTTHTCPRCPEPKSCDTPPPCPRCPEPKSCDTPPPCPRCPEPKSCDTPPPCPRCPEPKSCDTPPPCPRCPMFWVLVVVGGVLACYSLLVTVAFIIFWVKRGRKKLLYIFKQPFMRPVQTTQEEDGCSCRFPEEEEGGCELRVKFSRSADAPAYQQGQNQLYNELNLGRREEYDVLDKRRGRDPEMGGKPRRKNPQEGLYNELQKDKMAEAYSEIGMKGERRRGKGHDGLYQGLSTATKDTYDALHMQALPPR
Sequence of R11_IgG3_MiH3 CAR (ROR1-specific R11 scFv, IgG3_MiH3 spacer) (chain, as listed by the source): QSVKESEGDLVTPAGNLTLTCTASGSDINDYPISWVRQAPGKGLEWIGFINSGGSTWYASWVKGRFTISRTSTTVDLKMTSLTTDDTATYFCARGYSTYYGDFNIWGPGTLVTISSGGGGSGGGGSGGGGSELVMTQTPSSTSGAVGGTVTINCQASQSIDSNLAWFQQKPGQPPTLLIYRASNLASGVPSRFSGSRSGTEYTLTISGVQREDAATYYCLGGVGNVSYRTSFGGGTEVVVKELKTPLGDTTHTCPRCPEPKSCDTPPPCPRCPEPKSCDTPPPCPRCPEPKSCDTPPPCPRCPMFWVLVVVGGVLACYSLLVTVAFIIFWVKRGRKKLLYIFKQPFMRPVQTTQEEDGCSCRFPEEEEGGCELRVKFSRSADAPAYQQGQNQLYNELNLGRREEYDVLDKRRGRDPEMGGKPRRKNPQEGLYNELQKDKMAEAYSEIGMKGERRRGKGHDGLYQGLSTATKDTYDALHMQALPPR
Sequence of CD19_IgG3_MiH5/MiH1 CAR (advanced IgG3 format: FMC63 scFv with MiH5 linker between the variable domains, MiH1 …) (chain, as listed by the source): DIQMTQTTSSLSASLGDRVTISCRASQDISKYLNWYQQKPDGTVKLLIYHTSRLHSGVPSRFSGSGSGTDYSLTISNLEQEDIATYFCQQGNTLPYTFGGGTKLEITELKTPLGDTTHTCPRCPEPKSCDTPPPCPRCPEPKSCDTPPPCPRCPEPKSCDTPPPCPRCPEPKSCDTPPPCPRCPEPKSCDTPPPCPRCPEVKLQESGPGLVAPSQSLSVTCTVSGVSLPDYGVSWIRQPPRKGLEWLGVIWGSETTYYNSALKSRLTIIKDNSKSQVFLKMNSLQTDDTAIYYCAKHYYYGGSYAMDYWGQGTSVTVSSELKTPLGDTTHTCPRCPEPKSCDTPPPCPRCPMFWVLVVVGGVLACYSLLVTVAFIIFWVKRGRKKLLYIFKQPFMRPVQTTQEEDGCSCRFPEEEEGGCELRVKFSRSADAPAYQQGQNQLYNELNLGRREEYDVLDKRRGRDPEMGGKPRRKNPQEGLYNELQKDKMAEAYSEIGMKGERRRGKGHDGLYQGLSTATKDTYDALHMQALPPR
Sequence of CD19_IgG3_MiH1 CAR (FMC63 scFv, IgG3_MiH1 spacer, CD28tm, 4-1BB/CD3zeta) (chain, as listed by the source): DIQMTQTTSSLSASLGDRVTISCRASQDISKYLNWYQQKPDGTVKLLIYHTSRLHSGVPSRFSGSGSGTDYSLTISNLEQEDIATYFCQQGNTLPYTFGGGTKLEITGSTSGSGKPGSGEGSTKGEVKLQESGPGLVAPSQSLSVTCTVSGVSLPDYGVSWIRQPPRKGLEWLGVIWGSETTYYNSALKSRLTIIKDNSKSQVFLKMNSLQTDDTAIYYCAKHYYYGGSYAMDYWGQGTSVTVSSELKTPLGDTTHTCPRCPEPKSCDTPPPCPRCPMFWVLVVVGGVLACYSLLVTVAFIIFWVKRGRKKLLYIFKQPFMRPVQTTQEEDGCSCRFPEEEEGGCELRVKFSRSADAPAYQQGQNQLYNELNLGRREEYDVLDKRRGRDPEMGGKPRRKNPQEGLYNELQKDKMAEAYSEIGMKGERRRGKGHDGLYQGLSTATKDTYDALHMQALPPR

Row | Binder | expansion of CAR T cells after one week on plate-bound antibody [1] | expansion of CAR T cells after one week on plate-bound antibody [2] | increase in CAR T cell numbers after 7 days of stimulation on plate-bound antibody [3] | ADC concentration with the told effect on viable CAR T cells (72 h) [1] | ADC concentration with the told effect on viable CAR T cells (72 h) [4] | ADC concentration with the told effect on viable CAR T cells (72 h) [5] | ADC concentration with the told effect on viable CAR T cells (72 h) [2] | ADC concentration with the told effect on viable CAR T cells (72 h) [6] | ADC concentration with the told effect on viable CAR T cells (72 h) [3] | ADC concentration with the told effect on viable CAR T cells (72 h) [7] | ADC concentration with the told effect on viable CAR T cells (72 h) [8]
1 | B1 | 4 fold | 4 fold | > 2 fold |  |  |  |  |  |  |  | 
2 | B2 |  |  |  | 50 ng/mL and 5000 ng/mL | 10 µg/mL | 500 ng/mL and 5000 ng/mL | 5 µg/mL | 500 ng/mL and 5000 ng/mL | 5 µg/mL | 5 µg/mL | 500 ng/mL and 5000 ng/mL
